Reference: patent publication US20160200782A1 (MOERAE MATRIX, published 2016)

Assays:
Assay in all cases: cell-based or functional assay
CHK1(h) = target: T1, CHK1(h) (human, UniProt O14757 1-476)
T1 sequence (looked up): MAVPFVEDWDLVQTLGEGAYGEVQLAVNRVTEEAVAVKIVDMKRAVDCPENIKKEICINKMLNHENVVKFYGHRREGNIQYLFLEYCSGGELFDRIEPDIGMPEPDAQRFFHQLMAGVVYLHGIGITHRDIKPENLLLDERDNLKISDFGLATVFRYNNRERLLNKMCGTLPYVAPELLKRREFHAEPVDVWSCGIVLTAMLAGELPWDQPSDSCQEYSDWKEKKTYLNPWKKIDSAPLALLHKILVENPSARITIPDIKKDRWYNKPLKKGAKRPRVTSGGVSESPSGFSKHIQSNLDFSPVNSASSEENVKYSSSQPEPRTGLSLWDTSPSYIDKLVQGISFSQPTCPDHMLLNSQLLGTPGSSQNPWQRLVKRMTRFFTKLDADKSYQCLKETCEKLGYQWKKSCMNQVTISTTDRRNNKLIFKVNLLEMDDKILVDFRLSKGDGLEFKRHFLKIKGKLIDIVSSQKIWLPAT

AMPKa2(h) = AMPKa2(h) (human, UniProt P54646 1-552, limits assumed)
Plk3(h) = Plk3(h) (human, UniProt Q9H4B4 1-646, limits assumed)
Aurora-A(h) = target: T2, Aurora-A(h) (human, UniProt O14965 1-403)
T2 sequence (looked up): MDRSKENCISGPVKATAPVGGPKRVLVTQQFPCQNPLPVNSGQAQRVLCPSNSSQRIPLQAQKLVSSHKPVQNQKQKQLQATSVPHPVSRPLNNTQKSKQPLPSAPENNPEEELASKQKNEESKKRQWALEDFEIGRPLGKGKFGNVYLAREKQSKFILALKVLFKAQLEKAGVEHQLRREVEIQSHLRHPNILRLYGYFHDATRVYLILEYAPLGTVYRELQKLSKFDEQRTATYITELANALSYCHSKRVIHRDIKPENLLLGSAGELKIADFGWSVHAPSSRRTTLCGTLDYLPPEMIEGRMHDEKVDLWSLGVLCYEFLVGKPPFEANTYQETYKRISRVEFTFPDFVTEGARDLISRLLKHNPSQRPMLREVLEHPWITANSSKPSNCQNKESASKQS

FGFR2(h) = FGFR2(h) (human, UniProt P21802 456-770, limits assumed)
PKD2(h) = target: T3, PKD2(h) (human, UniProt Q9BZL6 1-878, limits assumed)
T3 sequence (looked up): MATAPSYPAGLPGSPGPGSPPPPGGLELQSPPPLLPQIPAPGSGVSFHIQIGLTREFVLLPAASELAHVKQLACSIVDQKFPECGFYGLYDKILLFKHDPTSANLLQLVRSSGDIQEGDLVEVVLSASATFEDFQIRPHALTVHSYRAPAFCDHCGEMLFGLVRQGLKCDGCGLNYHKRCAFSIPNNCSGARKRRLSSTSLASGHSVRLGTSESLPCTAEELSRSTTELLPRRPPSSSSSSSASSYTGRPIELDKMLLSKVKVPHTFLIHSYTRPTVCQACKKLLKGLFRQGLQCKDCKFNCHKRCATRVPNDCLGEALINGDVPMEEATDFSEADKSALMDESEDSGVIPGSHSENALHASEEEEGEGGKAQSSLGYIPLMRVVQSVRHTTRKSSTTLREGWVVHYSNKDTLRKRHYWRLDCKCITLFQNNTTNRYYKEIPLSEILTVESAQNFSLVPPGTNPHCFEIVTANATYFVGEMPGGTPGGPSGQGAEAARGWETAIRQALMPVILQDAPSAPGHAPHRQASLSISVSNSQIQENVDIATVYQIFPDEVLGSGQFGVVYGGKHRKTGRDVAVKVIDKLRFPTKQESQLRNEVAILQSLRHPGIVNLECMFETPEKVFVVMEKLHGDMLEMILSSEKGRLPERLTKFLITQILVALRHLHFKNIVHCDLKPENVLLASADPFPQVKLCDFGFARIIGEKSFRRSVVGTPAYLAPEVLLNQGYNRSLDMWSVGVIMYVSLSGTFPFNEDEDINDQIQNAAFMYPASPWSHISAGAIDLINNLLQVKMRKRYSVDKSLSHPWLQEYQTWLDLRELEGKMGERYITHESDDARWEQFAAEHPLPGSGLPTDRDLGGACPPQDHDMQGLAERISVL

EGFR(L861Q)(h) = EGFR(L861Q)(h) (human, UniProt P00533 696-1210, limits assumed)
MST2(h) = target: T4, MST2(h) (human, UniProt Q13188 1-491, limits assumed)
T4 sequence (looked up): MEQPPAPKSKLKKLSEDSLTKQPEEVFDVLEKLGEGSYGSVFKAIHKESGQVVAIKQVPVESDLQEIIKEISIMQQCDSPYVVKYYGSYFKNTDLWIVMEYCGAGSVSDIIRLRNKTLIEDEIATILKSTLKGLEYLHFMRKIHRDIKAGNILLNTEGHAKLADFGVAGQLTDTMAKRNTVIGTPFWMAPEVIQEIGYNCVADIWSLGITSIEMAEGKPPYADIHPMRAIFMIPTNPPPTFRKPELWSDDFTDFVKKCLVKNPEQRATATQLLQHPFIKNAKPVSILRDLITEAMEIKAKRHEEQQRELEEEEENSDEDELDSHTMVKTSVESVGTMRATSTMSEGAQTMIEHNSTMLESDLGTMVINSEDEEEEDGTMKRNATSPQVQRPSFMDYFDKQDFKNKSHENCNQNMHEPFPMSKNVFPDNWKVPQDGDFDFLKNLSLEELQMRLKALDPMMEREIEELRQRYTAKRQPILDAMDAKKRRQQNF

PRK2(h) = PRK2(h) (human, UniProt Q16513 501-984, limits assumed)
Met(D1246N)(h) = Met(D1246N)(h) (human, UniProt P08581-2 974-1408, limits assumed)
Also: test concentration or dose not given here.

**Q.** KAFAKLAARLYRKALARQLGVAA [MMI-0400] was tested. Which “% activity” value (CHK1(h)) did it give?
**A.** 87%

**Q.** And the “% activity” value (AMPKa2(h))?
**A.** 58%

**Q.** And the “% activity” value (Plk3(h))?
**A.** 129%

**Q.** What about the “% activity” value (Aurora-A(h)) of the same binder?
**A.** 119%

**Q.** What about the “% activity” value (FGFR2(h)) of the same binder?
**A.** 18%

**Q.** And the “% activity” value (PKD2(h))?
**A.** 25%

**Q.** What about the “% activity” value (EGFR(L861Q)(h)) of the same binder?
**A.** 22%

**Q.** And the “% activity” value (MST2(h))?
**A.** 11%

**Q.** And the “% activity” value (PRK2(h))?
**A.** 27%

**Q.** What about the “% activity” value (Met(D1246N)(h)) of the same binder?
**A.** 31%

**Q.** Which “% activity” value (CHK1(h)) does the source give for FAKLAARLYRKALARQLGVAA [MMI-0300] here?
**A.** 91%

**Q.** And the “% activity” value (AMPKa2(h))?
**A.** 54%

**Q.** What about the “% activity” value (Plk3(h)) of the same binder?
**A.** 127%

**Q.** What about the “% activity” value (Aurora-A(h)) of the same binder?
**A.** 92%

**Q.** And the “% activity” value (FGFR2(h))?
**A.** 14%

**Q.** What about the “% activity” value (PKD2(h)) of the same binder?
**A.** 33%

**Q.** What about the “% activity” value (EGFR(L861Q)(h)) of the same binder?
**A.** 25%

**Q.** And the “% activity” value (MST2(h))?
**A.** 19%

**Q.** What about the “% activity” value (PRK2(h)) of the same binder?
**A.** 33%

**Q.** What about the “% activity” value (Met(D1246N)(h)) of the same binder?
**A.** 82%
